Changes are numbered by the printed parent chain. One block for each molecule: values may come before it.
Legend:
Assay type in all cases: biochemical, Z. mays
[1] = tested on: 4-hydroxyphenylpyruvate dioxygenase (HPPD); experiment: Estimate of kcat from initial rate at saturating hydroxyphenylpyruvate without inhibitor (ON rate ratio assay)
Text: (§1) Higher KD (reduced affinity or increased insensitivity) can be attained with a numerically smaller ON rate, a larger OFF rate or both. To detect and quantify changes in kON and kOFF, observations of the time course of an HPPD reaction as inhibitor binds to and inactivates the enzyme (kON), or is released from a pre-formed enzyme-inhibitor complex (kOFF) were used, as shown in FIGS. 13A and 13B. In practice, a quantitative indicator of kON was obtained by monitoring the time courses of HPPD reactions containing 60 or 120 nM HPPD and 100 μM HPP in the presence and absence of 4 μM inhibitor (e.g., mesotrione or tembotrione). The ratio of the reaction rate with inhibitor to that without inhibitor during the 70 to 90 second interval of the reaction was termed the “ON rate ratio”. The smaller the actual kON, the more slowly the HPPD reaction decelerates and the higher the value is for the ON rate ratio. FIGS. 13A and 13B illustrate the contrasting reaction velocity in the 70-90 sec interval for maize wild-type HPPD (FIG. 13A) versus an improved variant (SEQ ID NO:78) (FIG. 13B).
Thirty nine variants were desensitized to tembotrione compared with the backbone enzyme, Round 7, variant 9070 (SEQ ID NO:2) and all were desensitized compared with maize wild type HPPD (SEQ ID NO:1). Because the assay for ON rate ratio includes an initial rate measurement at saturating hydroxyphenylpyruvate without inhibitor and with known enzyme concentration, an estimate of kcat was available. Taking into account kcat and insensitivity parameters, 30 variants were selected for measurement of substrate saturation kinetic parameters and re-evaluation of insensitivity to tembotrione. The kinetic and insensitivity parameters were determined as described in Example 1, and were multiplied to generate the “trait fitness” parameter. The complete list of variants, i.e., of selected single substitutions in SEQ ID NO:2, analyzed with multiple inhibitors and the results obtained are shown in Table 6. The same set of 30 variants were evaluated for insensitivity to mesotrione, sulcotrione, isoxaflutole (its active diketonitrile form, abbreviated DKN in Table 6) and topramezone.

[2] = tested on: 4-hydroxyphenylpyruvate dioxygenase (HPPD); experiment: Insensitivity parameter (ON × OFF) and trait fitness (ON × OFF × kcat/KM or × kcat); design: key to ON × OFF / Insensitivity, mesotrione, ON × OFF / Insensitivity, tembotrione, ON × OFF / Insensitivity, topramezone, ON × OFF / Insensitivity, sulcotrione, ON × OFF / Insensitivity, isoxaflutole (DKN), ON × OFF: insensitivity = ON rate ratio × OFF rate ratio (surrogate for KD)
Text: Because substrate and inhibitors bind in the same site, the high concentration of substrate present may competitively trap the inhibitor and prevent it from binding again. To be sure that improvement in ON rates is being taken into account, the ON and OFF rate ratios were multiplied, creating an “insensitivity parameter” that is a surrogate for KD. KD is expressed as kOFF/kON, but because the ON rate ratio is an inverse parameter (the higher the value of ON rate ratio, the lower the value of the represented phenomenon, kON), it is appropriate to multiply ON and OFF rate ratios rather then divide OFF rate ratio by ON rate ratio. Another parameter, which quantifies the combined catalytic and insensitivity properties of the enzyme is kcat/KM×ON rate ratio×OFF rate ratio, and is termed “trait fitness”. This parameter is intended to have a meaning similar to the commonly used expression kcat/KM×Ki.

[3] = tested on: 4-hydroxyphenylpyruvate dioxygenase (HPPD); experiment: OFF rate ratio: release of inhibitor from pre-formed enzyme-inhibitor complex; conditions: Table 7; tembotrione; combinatorial variants
Protocol: A quantitative indicator of kOFF can be obtained by observing the time course of an HPPD reaction as inhibitor is released from a pre-formed enzyme-inhibitor complex. HPPD and inhibitor were incubated together at concentrations of 7.2 and 8 μM, respectively. Incubations with the same concentrations of enzyme but no inhibitor were done in parallel. After 1 hr at room temperature, 5 to 10 μl of the enzyme-inhibitor complex was dispensed into the wells of the assay plate. Reactions were started with the addition of 290 to 295 μl of 25 mM Hepes, pH 7, 2 mM ascorbate, 10 μM FeSO4, 100 μM HPP and 50 nM HGD. The reactions were monitored at 320 nm for 12 min. Reaction velocity accelerates as inhibitor is released from the enzyme until a steady state is reached, during which the reaction velocity is constant. The ratio of the steady state rate in mixtures containing herbicidal inhibitor to the initial velocity of mixtures lacking inhibitor is termed the “OFF rate ratio”.
Another parameter to record is the time span required for the reactions with inhibitor to reach the steady state. FIGS. 13C and 13D illustrate the contrasting time span in which maize wild-type HPPD (FIG. 13C) and an improved variant (SEQ ID NO:78) (FIG. 13D) dissociated from mesotrione, as indicated by the accelerating reaction rates. The plateau of absorbance is due to exhaustion of the substrate. With the improved variant, not only was the steady state attained in a shorter time span (80 sec for the variant versus 280 sec for wild type), the velocity attained was twice as high as with wild type, though the enzymes were present at the same concentration (240 nM). This is because a larger fraction of the variant enzyme is free of inhibitor compared to the wild-type enzyme, and the kcat for both is nearly the same, about 220 min^−1.

[4] = tested on: 4-hydroxyphenylpyruvate dioxygenase (HPPD); experiment: ON rate ratio: HPPD reaction rate with vs without inhibitor in the 70 to 90 second interval; conditions: Table 7; tembotrione; combinatorial variants
Text: as §1

[5] = Table 7, combinatorial variants
[6] = Table 7, tembotrione, combinatorial variants

ON × OFF ([2]; Megatable 3, shuffled variants): 0.249
ON × OFF [2, 6]: 0.249
OFF rate ratio [3]: 0.356
ON rate ratio [4]: 0.699
B3: P056028-C-10 (protein)
chain: MGPTPTATAAGAAVAAASAAEQAAFRLVGHRNFVRFNPRSDRFQTLAFHHVELWCADAASAAGRFSFALGVPLAARSDLSTGNSAHASLLLRSGSLSLLFTAPYAHGADAATAALPSFSAAAARRFAADHGLAVRAVALRVADAEDAFRASVAAGARPAFGPVDLGRGFRLAEVELYGDVVLRYVSYSDGAAGEPFLPGFEGVASPGAADYGLSRFDHIVGNVPELAPAAAYMAGFTGFHEFAEFTTEDVGTTESGLNSMALANNSENVLLPLNEPVHGTKRRSQIQTFLDHHGGPGVQHIALASDDVLRTLREMRARSAMGGFEFLPPPLSDYYDGVRKCAGDVLTEAQINECQELGVMVDRDDEGVLLQIFTKPVGDRPTFFLEIIQRIGCMEKDEKGQEYQKGGCGGFGKGNFGQLFKSIEDYEKSLEAKQAAAAATAQGS
modifications: Zea mays variant form created by artificial means.
kcat ([1]; Megatable 3, shuffled variants): 0.243 s⁻¹
kcat [1, 5]: 0.243 s⁻¹
ON × OFF × kcat ([2]; Megatable 3, shuffled variants): 3.63
ON × OFF × kcat [2, 6]: 3.63

ON × OFF ([2]; Megatable 3, shuffled variants): 0.272
ON × OFF [2, 6]: 0.272
OFF rate ratio [3]: 0.379
ON rate ratio [4]: 0.717
B4: P056028-C-02 (protein)
chain: B3 chain with S188P, Y211L, K340R, E356K
modifications: Zea mays variant form created by artificial means.
kcat ([1]; Megatable 3, shuffled variants): 0.313 s⁻¹
kcat [1, 5]: 0.313 s⁻¹
ON × OFF × kcat ([2]; Megatable 3, shuffled variants): 5.11
ON × OFF × kcat [2, 6]: 5.11

ON × OFF ([2]; Megatable 3, shuffled variants): 0.234
ON × OFF [2, 6]: 0.234
OFF rate ratio [3]: 0.322
ON rate ratio [4]: 0.727
B8: P056028-C-04 (protein)
chain: B3 chain with G107D, S188P, A191G, P206S, H278L, K340R, G417S, Q434R
modifications: Zea mays variant form created by artificial means.
kcat ([1]; Megatable 3, shuffled variants): 0.378 s⁻¹
kcat [1, 5]: 0.378 s⁻¹
ON × OFF × kcat ([2]; Megatable 3, shuffled variants): 5.32
ON × OFF × kcat [2, 6]: 5.32

ON × OFF ([2]; Megatable 3, shuffled variants): 0.263
ON × OFF [2, 6]: 0.263
OFF rate ratio [3]: 0.356
ON rate ratio [4]: 0.739
B11: P056028-C-03 (protein)
chain: B3 chain with F67Y, S188P, L385I, I387L
modifications: Zea mays variant form created by artificial means.
kcat ([1]; Megatable 3, shuffled variants): 0.228 s⁻¹
kcat [1, 5]: 0.228 s⁻¹
ON × OFF × kcat ([2]; Megatable 3, shuffled variants): 3.62
ON × OFF × kcat [2, 6]: 3.62

ON × OFF ([2]; Megatable 3, shuffled variants): 0.214
ON × OFF [2, 6]: 0.214
OFF rate ratio [3]: 0.293
ON rate ratio [4]: 0.731
B12: P056028-C-11 (protein)
chain: B3 chain with S188P, Y211L, I387L
modifications: Zea mays variant form created by artificial means.
kcat ([1]; Megatable 3, shuffled variants): 0.205 s⁻¹
kcat [1, 5]: 0.205 s⁻¹
ON × OFF × kcat ([2]; Megatable 3, shuffled variants): 2.64
ON × OFF × kcat [2, 6]: 2.64

Further lines, the molecule ahead of its results:

B1: P056028-B-01 (protein)
chain: B3 chain with S188P, I387L
modifications: Zea mays variant form created by artificial means.
kcat ([1]; Megatable 3, shuffled variants): 0.31 s⁻¹
kcat [1, 5]: 0.31 s⁻¹
ON × OFF ([2]; Megatable 3, shuffled variants): 0.230
ON × OFF × kcat ([2]; Megatable 3, shuffled variants): 4.28
ON × OFF [2, 6]: 0.230
ON × OFF × kcat [2, 6]: 4.28
OFF rate ratio [3]: 0.309
ON rate ratio [4]: 0.745

B2: P056028-B-10 (protein)
chain: B3 chain with L182M, S188P, K340R, L385V
modifications: Zea mays variant form created by artificial means.
kcat ([1]; Megatable 3, shuffled variants): 0.298 s⁻¹
kcat [1, 5]: 0.298 s⁻¹
ON × OFF ([2]; Megatable 3, shuffled variants): 0.230
ON × OFF × kcat ([2]; Megatable 3, shuffled variants): 4.12
ON × OFF [2, 6]: 0.230
ON × OFF × kcat [2, 6]: 4.12
OFF rate ratio [3]: 0.327
ON rate ratio [4]: 0.703

B5: P056028-B-06 (protein)
chain: B3 chain with S188P, K340R, E356K
modifications: Zea mays variant form created by artificial means.
kcat ([1]; Megatable 3, shuffled variants): 0.333 s⁻¹
kcat [1, 5]: 0.333 s⁻¹
ON × OFF ([2]; Megatable 3, shuffled variants): 0.252
ON × OFF × kcat ([2]; Megatable 3, shuffled variants): 5.03
ON × OFF [2, 6]: 0.252
ON × OFF × kcat [2, 6]: 5.03
OFF rate ratio [3]: 0.353
ON rate ratio [4]: 0.713

B6: P056028-B-08 (protein)
chain: B3 chain with S188P
modifications: Zea mays variant form created by artificial means.
kcat ([1]; Megatable 3, shuffled variants): 0.258 s⁻¹
kcat [1, 5]: 0.258 s⁻¹
ON × OFF ([2]; Megatable 3, shuffled variants): 0.221
ON × OFF × kcat ([2]; Megatable 3, shuffled variants): 3.44
ON × OFF [2, 6]: 0.221
ON × OFF × kcat [2, 6]: 3.44
OFF rate ratio [3]: 0.325
ON rate ratio [4]: 0.681

B7: P056028-B-05 (protein)
chain: B3 chain with S188P, K281R, I387L
modifications: Zea mays variant form created by artificial means.
kcat ([1]; Megatable 3, shuffled variants): 0.305 s⁻¹
kcat [1, 5]: 0.305 s⁻¹
ON × OFF ([2]; Megatable 3, shuffled variants): 0.211
ON × OFF × kcat ([2]; Megatable 3, shuffled variants): 3.85
ON × OFF [2, 6]: 0.211
ON × OFF × kcat [2, 6]: 3.85
OFF rate ratio [3]: 0.287
ON rate ratio [4]: 0.734

B9: P056028-B-07 (protein)
chain: B3 chain with S188P, P206Q, K340R, L385I, I387L
modifications: Zea mays variant form created by artificial means.
kcat ([1]; Megatable 3, shuffled variants): 0.153 s⁻¹
kcat [1, 5]: 0.153 s⁻¹
ON × OFF ([2]; Megatable 3, shuffled variants): 0.307
ON × OFF × kcat ([2]; Megatable 3, shuffled variants): 2.83
ON × OFF [2, 6]: 0.307
ON × OFF × kcat [2, 6]: 2.83
OFF rate ratio [3]: 0.389
ON rate ratio [4]: 0.788

B10: P056028-B-04 (protein)
chain: B3 chain with L182M, S188P, P206S, S214N
modifications: Zea mays variant form created by artificial means.
kcat ([1]; Megatable 3, shuffled variants): 0.275 s⁻¹
kcat [1, 5]: 0.275 s⁻¹
ON × OFF ([2]; Megatable 3, shuffled variants): 0.196
ON × OFF × kcat ([2]; Megatable 3, shuffled variants): 3.24
ON × OFF [2, 6]: 0.196
ON × OFF × kcat [2, 6]: 3.24
OFF rate ratio [3]: 0.273
ON rate ratio [4]: 0.718

B13: P056028-B-03 (protein)
chain: B3 chain with S188P, S214N, K340R, E356R
modifications: Zea mays variant form created by artificial means.
kcat ([1]; Megatable 3, shuffled variants): 0.298 s⁻¹
kcat [1, 5]: 0.298 s⁻¹
ON × OFF ([2]; Megatable 3, shuffled variants): 0.259
ON × OFF × kcat ([2]; Megatable 3, shuffled variants): 4.63
ON × OFF [2, 6]: 0.259
ON × OFF × kcat [2, 6]: 4.63
OFF rate ratio [3]: 0.353
ON rate ratio [4]: 0.732
